Measurements reported in the supplement of paper PMC10724198.
± gives the standard deviation of the averaged measurements.

Tests used:
[1] = tested on: Saccharomyces cerevisiae; experiment: protein stability index of tFT-peptide fusion (C-terminal peptide) (PSI (0-1 scale)); higher = more stable (slower turnover); details: genetic background: wild type; temperature: 30 C
[2] = tested on: Saccharomyces cerevisiae; experiment: as above
Protocol: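 MPS profiling in S. cerevisiae of the tFT-X12 degron library: putative degron peptides plus stable controls, 12 aa, fused to the C-terminus of a sfGFP-mCherry timer. Cells are FACS-sorted into 8 mCherry/sfGFP bins and deep-sequenced. PSI runs from 0 (unstable) to 1 (stable). Backgrounds are wild type, das1Δ and doa10Δ at 30 °C, and wild type, das1Δ, cdc34-1 and cdc53-1 at 37 °C; 2-3 technical replicates each.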

[3] = genetic background: cdc34-1, temperature: 37 C
[4] = genetic background: cdc53-1, temperature: 37 C
[5] = genetic background: das1 deletion, temperature: 30 C
[6] = genetic background: das1 deletion, temperature: 37 C
[7] = genetic background: doa10 deletion, temperature: 30 C
[8] = genetic background: wild type, temperature: 30 C
[9] = genetic background: wild type, temperature: 37 C
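Note: PSI is a weighted mean of sequencing reads over stability bins, variants kept only with over 10 reads, mCherry proximal and sfGFP distal, peptide attached via GGGS linker.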

Sequence	protein stability index [1]	protein stability index [2, 3]	protein stability index [2, 4]	protein stability index [2, 5]	protein stability index [2, 6]	protein stability index [2, 7]	protein stability index [2, 8]	protein stability index [2, 9]
FACLTPFCLCLT	0.431 ± 0.025	0.527 ± 0.016	0.564 ± 0.015	0.422 ± 0.015	0.5742 ± 0.0044	0.325 ± 0.005	0.349 ± 0.013	0.51106 ± 0.0004
SFVCFSYYIVNI	0.51 ± 0.03	0.453 ± 0.021	0.482 ± 0.005	0.377 ± 0.021	0.564 ± 0.022	0.381 ± 0.023	0.363 ± 0.027	0.548 ± 0.049
VLLGYPRILSLF	0.35 ± 0.061	0.7 ± 0.059	0.8278 ± 0.002	0.681 ± 0.0075	0.8122 ± 0.0047	0.1646 ± 0.0013	0.167 ± 0.021	0.25 ± 0.0096
FFVMVFTVEVFV	0.194 ± 0.02	0.0407 ± 0.015	0.0863 ± 0.019	0.0929 ± 0.015	0.167 ± 0.01	0.0639 ± 0.011	0.0875 ± 0.015	0.132 ± 0.0075
FLWAVSLCRSLV	0.312 ± 0.029	0.607 ± 0.029	0.655 ± 0.022	0.548 ± 0.035	0.662 ± 0.015	0.178 ± 0.017	0.218 ± 0.026	0.385 ± 0.014
LFFFSFSFLFFL	0.278 ± 0.035	0.291 ± 0.07	0.29 ± 0.0037	0.302 ± 0.015	0.411 ± 0.00085	0.317 ± 0.024	0.245 ± 0.014	0.3202 ± 0.0027
DVLLVVVLGRFL	0.44 ± 0.066	0.403 ± 0.058	0.563 ± 0.063	0.344 ± 0.03	0.5481 ± 0.0036	0.322 ± 0.043	0.312 ± 0.027	0.535 ± 0.0089
RWVFAGVGLFVG	0.502 ± 0.028	0.691 ± 0.071	0.732 ± 0.016	0.605 ± 0.0071	0.7241 ± 0.0046	0.353 ± 0.043	0.376 ± 0.025	0.598 ± 0.024
CRGLSWRMITCL	0.225 ± 0.012	0.493 ± 0.035	0.59 ± 0.049	0.484 ± 0.016	0.6459 ± 0.00088	0.125 ± 0.011	0.14 ± 0.015	0.176 ± 0.02
IQICLNRLRLFH	0.4361 ± 0.0038	0.654 ± 0.024	0.7 ± 0.01	0.63 ± 0.016	0.7002 ± 0.0018	0.251 ± 0.016	0.305 ± 0.02	0.573 ± 0.043
GGGHGSSCSVCD	0.744 ± 0.032	0.67 ± 0.035	0.74 ± 0.034	0.665 ± 0.023	0.69544 ± 0.00064	0.646 ± 0.013	0.645 ± 0.0097	0.702 ± 0.019
SIRVIVAVRNIS	0.431 ± 0.052	0.621 ± 0.033	0.648 ± 0.041	0.554 ± 0.023	0.663 ± 0.0092	0.21 ± 0.015	0.239 ± 0.038	0.4346 ± 0.0024
VCWVYESWKCLA	0.168 ± 0.026	0.438 ± 0.038	0.571 ± 0.043	0.536 ± 0.027	0.672 ± 0.0075	0.0888 ± 0.014	0.103 ± 0.0097	0.107 ± 0.013
YVVCFFFKLFYF	0.382 ± 0.046	0.271 ± 0.012	0.364 ± 0.024	0.299 ± 0.025	0.4172 ± 0.0025	0.256 ± 0.0065	0.244 ± 0.025	0.341 ± 0.024
TMSGVTRCVLVL	0.423 ± 0.015	0.521 ± 0.048	0.526 ± 0.04	0.385 ± 0.026	0.5463 ± 0.0053	0.339 ± 0.015	0.395 ± 0.02	0.5379 ± 0.0049
RGGVLYVSIRCK	0.341 ± 0.053	0.282 ± 0.019	0.335 ± 0.0034	0.228 ± 0.032	0.397 ± 0.0054	0.186 ± 0.015	0.233 ± 0.037	0.386 ± 0.023
FFPSFGLFLCPV	0.409 ± 0.027	0.431 ± 0.01	0.471 ± 0.0067	0.366 ± 0.036	0.5001 ± 0.0015	0.381 ± 0.013	0.357 ± 0.031	0.4685 ± 0.0018
DLLKAILKIKSL	0.171 ± 0.054	0.579 ± 0.095	0.704 ± 0.05	0.6279 ± 0.0037	0.7476 ± 0.0011	0.104 ± 0.0099	0.0962 ± 0.017	0.162 ± 0.049
IACVLSIFLNAA	0.44 ± 0.054	0.325 ± 0.0071	0.435 ± 0.051	0.292 ± 0.039	0.435 ± 0.0047	0.2559 ± 0.0013	0.274 ± 0.031	0.436 ± 0.0094
ALFLLWVVMHDV	0.343 ± 0.011	0.2376 ± 0.0022	0.337 ± 0.021	0.247 ± 0.036	0.421 ± 0.018	0.195 ± 0.024	0.219 ± 0.035	0.397 ± 0.022

Sequence	protein stability index [1]	protein stability index [2, 3]	protein stability index [2, 4]	protein stability index [2, 5]	protein stability index [2, 6]	protein stability index [2, 7]	protein stability index [2, 8]	protein stability index [2, 9]
LCVVFCIRTYRV	0.335 ± 0.053	0.249 ± 0.027	0.437 ± 0.079	0.259 ± 0.038	0.476 ± 0.044	0.247 ± 0.031	0.251 ± 0.042	0.471 ± 0.027
GWRGVVLVFVLV	0.36784 ± 0.00027	0.302 ± 0.0049	0.46 ± 0.059	0.28 ± 0.027	0.47443 ± 1.3e-05	0.251 ± 0.012	0.269 ± 0.027	0.438 ± 0.015
FSFPIIFFGMFL	0.415 ± 0.0083	0.445 ± 0.021	0.463 ± 0.0054	0.394 ± 0.02	0.542 ± 0.006	0.426 ± 0.019	0.324 ± 0.033	0.51 ± 0.021
RLFSPPVLATPS	0.0111 ± 0.016	0.654 ± 0.012	0.679 ± 0.025	0.525 ± 0.031	0.696 ± 0.021	0.51908 ± 0.00034	0.534 ± 0.019	0.6477 ± 0.0014
VRLYLRSCVVES	0.32 ± 0.021	0.347 ± 0.061	0.368 ± 0.0011	0.228 ± 0.029	0.437 ± 0.0094	0.181 ± 0.0071	0.217 ± 0.026	0.4148 ± 0.0031
PFIPLLLAPALA	0.441 ± 0.1	0.4032 ± 0.0011	0.409 ± 0.0068	0.297 ± 0.036	0.458 ± 0.0089	0.275 ± 0.0074	0.307 ± 0.023	0.4205 ± 0.00058
YVSSFSLVVLLS	0.228 ± 0.029	0.425 ± 0.0077	0.478 ± 0.024	0.377 ± 0.033	0.506 ± 0.0069	0.108 ± 0.015	0.125 ± 0.014	0.217 ± 0.017
LCGGEWVVWVKG	0.342 ± 0.0052	0.645 ± 0.023	0.7321 ± 0.0055	0.557 ± 0.02	0.721 ± 0.012	0.211 ± 0.0085	0.234 ± 0.026	0.477 ± 0.029
RKWLFFRSWRYV	0.134 ± 0.002	0.476 ± 0.047	0.69 ± 0.012	0.626 ± 0.028	0.7486 ± 0.0024	0.0555 ± 0.024	0.0663 ± 0.011	0.0912 ± 0.024
LVYLVCAYSECE	0.332 ± 0.02	0.44 ± 0.015	0.463 ± 0.039	0.275 ± 0.039	0.477 ± 0.0062	0.242 ± 0.019	0.274 ± 0.0093	0.477 ± 0.0088
FLLYRFSLVGCF	0.172 ± 0.026	0.0567 ± 0.0082	0.108 ± 0.02	0.123 ± 0.031	0.194 ± 0.011	0.0828 ± 0.021	0.108 ± 0.032	0.189 ± 0.011
ILGQSVIMRIKM	0.714 ± 0.075	0.673 ± 0.035	0.7301 ± 0.0028	0.615 ± 0.027	0.7007 ± 0.00077	0.606 ± 0.0061	0.636 ± 0.02	0.686 ± 0.014
YLRVRRPGSALV	0.654 ± 0.23	0.7087 ± 0.0013	0.769 ± 0.028	0.63 ± 0.022	0.7643 ± 0.0014	0.629 ± 0.035	0.624 ± 0.0081	0.7277 ± 0.0017
MFFSWVLSISLT	0.0454 ± 0.021	0.0242 ± 0.0074	0.058 ± 0.011	0.0335 ± 0.0093	0.0704 ± 0.0084	0.024 ± 0.0024	0.0234 ± 0.0076	0.0577 ± 0.011
CPMFVKFFFCLY	0.405 ± 0.024	0.448 ± 0.027	0.462 ± 0.011	0.465 ± 0.036	0.508 ± 0.019	0.479 ± 0.013	0.41 ± 0.021	0.481 ± 0.0055
FPGPPSPPPSYF	0.706 ± 0.011	0.699 ± 0.048	0.776 ± 0.001	0.639 ± 0.01	0.766 ± 0.0078	0.6435 ± 0.0011	0.6466 ± 0.0022	0.7451 ± 0.0065
YFYIRLGIAYMM	0.275 ± 0.027	0.421 ± 0.037	0.511 ± 0.056	0.436 ± 0.026	0.503 ± 0.019	0.197 ± 0.013	0.206 ± 0.019	0.264 ± 0.015
SLRPFFPPLPRP	0.666 ± 0.28	0.631 ± 0.06	0.729 ± 0.0088	0.69 ± 0.033	0.7305 ± 0.0014	0.723 ± 0.026	0.702 ± 0.031	0.7187 ± 0.0031
WGRAADRRRRLG	0.346 ± 0.025	0.633 ± 0.054	0.731 ± 0.039	0.628 ± 0.011	0.7658 ± 0.0054	0.152 ± 0.0034	0.207 ± 0.013	0.344 ± 0.018
